Measured values taken from patent publication US20260242478A1 (published 2026).
Where no end group is shown, it is not given here.

Experiments:
[1] = molecular target: T1, Anti-PSMA Fab (SEQ ID NOs: 19, 20); assay: phage binding ELISA; PSMA Fab on plate pre-incubated with PSMA antigen as competitor, anti-M13-HRP detection
T1 construct: Biotinylated and captured on neutravidin coated plates in the phage ELISA; also called 006 PSMA Fab
Procedure: (§1) Clonal phage were harvested as crude supernatants and screened via standard ELISAs. […] Prior to the addition of clonal phage. wells were incubated with blocking buffer and PSMA antigen or blocking buffer alone. Without washing or aspirating, clonal phage supernatants were then added to the wells and incubated for a short time. Wells were then washed followed by detection of bound phage using a horse radish conjugated anti-M13 antibody.

[2] = molecular target: T1, Anti-PSMA Fab (SEQ ID NOs: 19, 20); assay: phage binding ELISA; biotinylated PSMA Fab on neutravidin plate, bound phage detected with anti-M13-HRP
Procedure: as §1

[3] = molecular target: T2, Anti-PSMA Fab (SEQ ID NOs: 19, 20); assay: phage binding ELISA; biotinylated PSMA Fab on neutravidin plate, clonal phage, anti-M13-HRP detection
T2 construct: Biotinylated PSMA Fab captured on neutravidin coated plates in the phage ELISA; also called 006 PSMA Fab
Procedure: as §1

[4] = molecular target: T2, Anti-PSMA Fab (SEQ ID NOs: 19, 20); assay: phage binding ELISA; Fab-coated wells pre-incubated with PSMA antigen as competitor, anti-M13-HRP detection;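 note: clonal phage supernatants screened, with reference wells given blocking buffer only (no PSMA antigen) before phage were added for a brief incubation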
Procedure: as §1

[5] = molecular target: T3, Anti-PSMA Fab (SEQ ID NOs: 19, 20); assay: phage ELISA; biotinylated PSMA Fab on neutravidin plate, clonal phage supernatant, anti-M13 HRP detection;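 note: wells preincubated with PSMA antigen in blocking buffer or with blocking buffer only before clonal phage were added for a short incubation, then bound phage detected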
T3 construct: In the phage ELISA the Fab was biotinylated and captured on neutravidin coated plates; also called 006 PSMA Fab
Procedure: as §1

[6] = molecular target: T3, Anti-PSMA Fab (SEQ ID NOs: 19, 20); assay: phage ELISA; biotinylated PSMA Fab on neutravidin plate pre-incubated with PSMA antigen (competitor), anti-M13 HRP detection
Procedure: as §1

Binder | Anti-PSMA Fab signal in the presence of PSMA [1] | Anti-PSMA Fab (SEQ ID NOs: 19, 20) signal [2] | Anti-PSMA Fab (SEQ ID NOs: 19, 20) signal [3] | Anti-PSMA Fab signal in the presence of PSMA [4] | also measured
ELQRCTPWWMCFDV [Phage-2027] | 0.0689 | 1.81 |  |  | 
IIKWCIPEWMCYMH [Phage-2028] | 0.104 | 1.81 |  |  | 
EAKWCIPAWMCEDA [Phage-2036] | 0.0685 | 1.8 |  |  | 
LDKWCTPSWMCYGM (Peptide-180 library clone, tested as clonal phage supernatant) [Phage-2018] |  |  | 1.83 | 0.106 | 
PERWCIPVWMCESG (Peptide-180 library clone, tested as clonal phage supernatant) [Phage-2014] |  |  | 1.83 | 0.0731 | 
FEKWCIPSWMCENA [Phage-2030] | 0.0725 | 1.81 |  |  | 
IVKWCTPPWMCTIY (Peptide-180 library clone, tested as clonal phage supernatant) [Phage-2019] |  |  | 1.83 | 0.153 | 
MVKWCFPEWMCWTD (Peptide-180 library clone, tested as clonal phage supernatant) [Phage-2017] |  |  | 1.83 | 0.136 | 
SLNWCIPEWMCEGF [Phage-2035] | 0.0793 | 1.8 |  |  | 
VIKLCSPPWMCIGL (Peptide-180 library clone, tested as clonal phage supernatant) [Phage-2020] |  |  | 1.82 | 0.0946 | 
EGKWCIPPWMCERN [Phage-2029] | 0.0762 | 1.81 |  |  | 
VQKWCIPAWMCDYV (Peptide-180 library clone, tested as clonal phage supernatant) [Phage-2024] |  |  | 1.82 | 0.0734 | 
LQKLCIPEWMCLNM (cysteine pairing not given here; also: fused to phage pIII, pIII sequence and linker not given here, Peptide-180 library clone) [Phage-2010] |  |  |  |  | Phage binding ELISA, Anti-PSMA Fab signal [5]: 1.84; Phage binding ELISA, Anti-PSMA Fab signal in the presence of PSMA [6]: 0.0655
WPMLCIPEWMCDGL [Phage-2033] | 0.0977 | 1.8 |  |  | 
PIRLCIPEWMCEMV (Peptide-180 library clone, tested as clonal phage supernatant) [Phage-2016] |  |  | 1.83 | 0.0575 | 
LEKWCIPAWMCEVF (Peptide-180 library clone, tested as clonal phage supernatant) [Phage-2013] |  |  | 1.84 | 0.0967 | 
HPKWCTPAWMCVML (cysteine pairing not given here; also: fused to phage pIII, pIII sequence and linker not given here, Peptide-180 library clone) [Phage-2008] |  |  |  |  | Phage binding ELISA, Anti-PSMA Fab signal [5]: 1.85; Phage binding ELISA, Anti-PSMA Fab signal in the presence of PSMA [6]: 0.0691
QLNWCIPEWMCQGL (Peptide-180 library clone, tested as clonal phage supernatant) [Phage-2022] |  |  | 1.82 | 0.124 | 
LEKWCTPLWMCVGI (Peptide-180 library clone, tested as clonal phage supernatant) [Phage-2026] |  |  | 1.82 | 0.078 | 
ELKRCTPSWMCEGI (Peptide-180 library clone, tested as clonal phage supernatant) [Phage-2025] |  |  | 1.82 | 0.059 | 
VVQLCSPVWMCEGF (Peptide-180 library clone, tested as clonal phage supernatant) [Phage-2015] |  |  | 1.83 | 0.086 | 
TEIWCIPPWMCDGQ (Peptide-180 library clone, tested as clonal phage supernatant) [Phage-2021] |  |  | 1.82 | 0.0686 | 
EFVKCVPAWMCEWT (cysteine pairing not given here; also: fused to phage pIII, pIII sequence and linker not given here, Peptide-180 library clone) [Phage-2009] |  |  |  |  | Phage binding ELISA, Anti-PSMA Fab signal [5]: 1.84; Phage binding ELISA, Anti-PSMA Fab signal in the presence of PSMA [6]: 0.0768
ASPMCIPEWMCSGV [Phage-2037] | 0.0687 | 1.8 |  |  | 
DTHMCRPLWMCTGL (cysteine pairing not given here; also: fused to phage pIII, pIII sequence and linker not given here, Peptide-180 library clone) [Phage-2011] |  |  |  |  | Phage binding ELISA, Anti-PSMA Fab signal [5]: 1.84; Phage binding ELISA, Anti-PSMA Fab signal in the presence of PSMA [6]: 0.0778
GEKWCIPPWMCITN (Peptide-180 library clone, tested as clonal phage supernatant) [Phage-2012] |  |  | 1.84 | 0.0697 | 
DIKWCIPPWMCQVE [Phage-2032] | 0.0691 | 1.81 |  |  | 
IVKWCTPEWMCVGF [Phage-2034] | 0.154 | 1.8 |  |  | 
ALMWCIPQWMCQDQ (Peptide-180 library clone, tested as clonal phage supernatant) [Phage-2023] |  |  | 1.82 | 0.102 | 
VEKWCIPSWMCAEV (cysteine pairing not given here; also: fused to phage pIII, pIII sequence and linker not given here) [Phage-2031] | 0.086 | 1.81 |  |  | 
